The DeepSol protein solubility set

Assay: soluble on expression in E. coli; label from the status in PepcDB or PDB records

Sequence	soluble on expression in E. coli
LAMVDNLQGDSGRGYYLEMLIGTPPQKLQILVDTGSSNFAVAGTPHSYIDTYFDTERSSTYRSKGFDVTVKYTQGSWTGFVGEDLVTIPKGFNTSFLVNIATIFESENFFLPGIKWNGILGLAYATLAKPSSSLETFFDSLVTQANIPNVFSMQMCGAGLPVAGSGTNGGSLVLGGIEPSLYKGDIWYTPIKEEWYYQIEILKLEIGGQSLNLDCREYNADKAIVDSGTTLLRLPQKVFDAVVEAVARASLIPEFSDGFWTGSQLACWTNSETPWSYFPKISIYLRDENSSRSFRITILPQLYIQPMMGAGLNYECYRFGISPSTNALVIGATVMEGFYVIFDRAQKRVGFAASPCAEIAGAAVSEISGPFSTEDVASNCVPA	soluble
LDPSGKSVIYTKSLAFEKALVRPEKEVKKVHTALDALNSSLADGRGVDFAYMMSIYQVESQMTLIEELGDLIMPDPEKYLNGELTYVSRQDFLSGDVVTKLEVVDLFVKQDNQDFNWSHYAGLLEAIKPARITLADIDYRIGSRWIPLAVYGKFAQETFMGKAYELSDQEVATVLEVSPIDGVITYQSKFAYTYSNATDRSLGVPASRYDSGRKIFENLLNSNQPTITKQVVEGDKKKNVTDVEKTTVLRAKETHLQELFQGFVAKYPEVQQMIEDTYNRLYNRTVSKSYDGSHLTIDGLAQNISLRPHQ	not soluble
LEAPRDLEAKEVTPRTALLTWTEPPVRPAGYLLSFHTPGGQTQEILLPGGITSHQLLGLFPSTSYNARLQAMWGQSLLPPVSTSFTTGGLRI	soluble
LFLPNTRAYRRYNRSVWAVRGSTRPQWQPPPKFQHAKCMSMRLAHRLQILLDDECHRRITAVARERGVPVATVVREAIDRGLVSPAGRRKSAGRRLLDAADMSVPEPRELKQELEALRARRG	not soluble
LFTPHWIVRYLVENSLGRLWMLNRPESSLVDRMEYYIKPEKQETDFLKINSPEEIKICDPACGSGHMLVYAFDLLYAIYEEEGYTPSEIPEMILTHNLFGIEIDKRAGELAGFALAMKARGKDRRFFNKQVHPNICMLENVAFEQGELNDYIETVGRELFTNAHRATLLQFAEADNFGSLIRPVAKDISDLLHLLESKNLSGNLSLLSTHQKVLKALKQADYLSPKYHVVVANPPYMGGKGMNNRLKTFAQDNYPDSKSDTFAMFIERNLDLAVKKGMVAMITMQSWMFLSSFEKLRENILSNDTILSMAHFGARAFDSIGGEVVSTTAFVLENAQHPDYKGSYLRLVDGN	not soluble
LGFNLKEAASIGIIGGADGPTTIYLTTKLAPHILSATAVAAYSYMSLVPLIQPPVIKALTTPEERRIRMEQLRPVSKREK	not soluble
LHAEGPPSVICIRLLVGLVFLSEGIQKFMYPDQLGPGRFERIGIPAATFFADLDGVVEIVCGTLVLLGLLTRVAAVPLLIDMVGAIVLTKLRALQPGGFLGVEGFWGMAHAARTDLSMLLGLIFLLWSGPGRWSLDRRLSKRATACGAR	not soluble
LIERIEGFEPQWWEQGGAKPEKPEMREPRQRNRYESAKAQREKNTRPENAANDAGAACGKIAGRSRRSRREHRTCALLQPRYGVK	soluble
LKKKVKRTCSNCLKGTAININNDILCIEKGIVSSDYVCSKHRFMPSFSSIKRKIHTCIDCEHFIIFDTSNVEDRAFGICELFTVRKYDGKNKKVCSKFVKRVKKEVC	not soluble
LKPKILTASRKIKIKAGFTHNLEVDFIGAPDPTATWTVGDSGAALAPELLVDAKSSTTSIFFPSAKRADSGNYKLKVKNELGEDEAIFEVIVQ	soluble
LKVREDENNPFYFRSSNSFQTLFENQNGRIRLLQRFNKRSPQLENLRDYRIVQFQSKPNTILLPHHADADFLLFVLSGRAILTLVNNDDRDSYNLHPGDAQRIPAGTTYYLVNPHDHQNLKMIWLAIPVNKPGRYDDFFLSSTQAQQSYLQGFSHNILETSFHSEFEEINRVLFGEEEEQRQQEGVIVELSKEQIRQLSRRAKSSSRKTISSEDEPFNLRSRNPIYSNNFGKFFEITPEKNPQLRDLDIFLSSVDINEGALLLPHFNSKAIVILVINEGDANIELVGIKEQQQKQKQEEEPLEVQRYRAELSEDDVFVIPAAYPFVVNATSNLNFLAFGINAENNQRNFLAGEKDNVVRQIERQVQELAFPGSAQDVERLLKKQRESYFVDAQPQQKEEGSKGRKGPFPSILGALY	soluble
LLELLLLTSELYPDPVLPALSLLPHTVRTAPAEASSLLEAGNADAVLVDARNDLSSGRGLCRLLSSTGRSIPVLAVVSEGGLVAVSADWGLDEILLLSTGPAEIDARLRLVVGRRGDLADQESLGKVSLGELVIDEGTYTARLRGRPLDLTYKEFELLKYLAQHAGRVFTRAQLLHEVWGYDFFGGTRTVDVHVRRLRAKLGPEHEALIGTVRNVGYKAVRPARGRPPAADPDDEDADPGRDGMQEPLVDPLRSQ	not soluble
LLLNLFNFRNFKDLFRNDINMMTVEEILYNEIKEFQASDRRAWMVIGDRYYRCENDILNRRIVRHTESGDIEDRSKANNRLAHGFVKNLVDEKIGYLLTKDYSLKCDNKEYIEKVKNVLGKYFQYTLTRLGYEASNKGIAWLQVYINEQGKFGMMIIPAEQCVPLWKDNTHTELYGMIRYYVQTVYEGKEKKQITRVEYYTDKEVYFYVLDNDHLIPDIEQYEGGPILHYKKGEEGRSWGKVPFIAWKNNHLEYPDVKFIKSLVDAYDKSRSEIDNFIEETKNLIYVLKGYGGENLSDFMKDLNYYRAIKIDDPEHGGVDTLTPKIDIQAAKEHFEQLKRDINEFGQGVPKDLDKYGNSPSGTALKFLYSGLDLKCNHLEVEFRQSFNQLLYFVNRYLAENGQGNYENENVELIFNRDIQINETETINNCVNSKGIISDETILANHPWVSDVEEELKQIEKERKSEEPPMFGEGDEE	soluble
LLQTMLSMTSHGPAQVFTERYQLIVQPLGLSQQVEKDSLDLLADYLHGFALSISCCHDASLIKTDMLDGPLKLICSSLLASRT	not soluble
LLTPQYISEAKIYVLSKETTLTSLADLQMGTQLTQDYKELIGSRPVMQEVINTLNLDITYRQLAEKLKLENPKDTRILYLTVTDPNPYMAKAIVDEIANAASDYIGEIMEMTPPKLIEDGMVATVQTSPNVKKN	not soluble
LMPTERIDINEREDCTASEMTAPTVPVALVTGAAKRLGRSIAEGLHAEGYAVCLHYHRSAAEANALSATLNARRPNSAITVQADLSNVATAPVSGADGSAPVTLFTRCAELVAACYTHWGRCDVLVNNASSFYPTPLLRNDEDGHEPCVGDREAMETATADLFGSNAIAPYFLIKAFAHRVAGTPAKHRGTNYSIINMVDAMTNQPLLGYTIYTMAKGALEGLTRSAALELAPLQIRVNGVGPGLSVLVDDMPPAVWEGHRSKVPLYQRDSSAAEVSDVVIFLCSSKAKYITGTCVKVDGGYSLTRA	soluble
LNAAMNLKREFVHRVQRFVVNPIGRQLPMTMLETIGRKTGQPRRTAVGGRVVDNQFWMVSEHGEHSDYVYNIKANPAVRVRIGGRWRSGTAYLLPDDDPRQRLRGLPRLNSAGVRAMGTDLLTIRVDLD	soluble
LPDGIEEVLPPEAARIEVARRQVLDLFQSWGYEFVVTPHIEYLESLLTGAGSDLDLRTFKVIDPQSGRQMGFRADITPQVARIDAHTLKREGPSRLCYAGSVLHAQPRALSSSRSPIQLGAELYGDASPSSDVEVISLMLAMLQLADVPDVHMDLGHVGIYRGLARAAGLSGEVEQQLFDALQRKAIDEVVALTANLPPELASMLRALVDLCGGREVLDAARDRLAGAPAPVLEALDDLLAIADRLAARFPQLPLYFDLGELRGYHYHTGVVFAVFVPGVGQSIAQGGRYDDIGADFGRARPATGFSTDLKTLVTLGQAEIVL	not soluble
LPFDGIVTKNIVSELSDILTGARIEKIYQPEPDEIIINLRTKGQNLKLLLSANASYPRIHLTDVTKENPINPPVFCMLLRKHLSGGKITKIDFHDFERVVTIHIETIDELGDLTFKKLVVEIMGKHSNIILVNNENKIIDSIKHVDSDISRVREVMPARPYTLPPGQDKINPLELDIDLLFSKAKEQGDPRISKFFLNNIKGFSPLLCEEICHRADVDPRLPVSSLSEDTIQNLKKVLKEIISKIENSEFTPCIIWNGDDRQKAVDFHSLEIKQYNTVDFYPSISRVLDLFYTIKDTSERLAQKKADLAKILNNCIDRCNKKISIHMDTLREVAEREKFKLYGELITANIYCIPKNASKVSLLNYYSENGEYVEVPLDENLLPQENAQRYFKKYAKAKAAYIHATQQLEEARGELSYLESVLHSLENSNSFEDIDDIRQELAEQGYLPSKKKRPEKKNSKNFTPYTYKSTDGFYIYVGKNNVQNDFLTLKFASSNDIWLHTKNIPGSHVIIRKDRGEIPDSTLFQAAMLAAYHSKAKNSSHVEVDYTKVKNVKKPNGAKPGMVIYDNYKTIIVTPDENVVNNLRMENR	soluble
LPLCDSLIIWLQTFKTASPCQDVKQLTNGVTMAQVLHQIDVAWFSESWLSRIKDDVGDNWRIKASNLKKVLHGITSYYHEFLGQQISEELIPDLNQITECADPVELGRLLQLILGCAVNCEKKQEHIKNIMTLEESVQHVVMTAIQELMSK	soluble
LQEPMYVYSHDGLLIAIFGEIRRYPVQIKEVPEQLKQAFLATEDARFYEHSGIDYKGIARAIWLLATTNEKRVPGGSTITQQVARQFFLNSEYSYKRKLAEILLARKIESQLKKDEILELYLNKSFFGNRAYGIAAAAEFYYGKKLNELNLDEMASLAGIPKFPSS	not soluble
LREQVQDLFNKKYGEALGIKYPVQVPYKRIKSNPGSVIIEGLPPGIPFRKPCTFGSQNLERILAVADKIKFTVTRPFQGLIPKPDE	soluble
LRRTALNGRFCRLEPLDVDRHAADLFAAYALGDNSDWTWLASTRPESVTATAHWIAGKVNDDVLVPYAVVDLRSEQAVGIVSYMAIEREMGTVEIGHVTWSRRMKNTPLGTEAVWLLLKNGFDHGYRRLEWKCDSMNVASRRAAERLGFSWEGRLRQRLVRKGRTRDSDMLSIIDGEWPARD	not soluble
LRVRKAIIPAAGLGTRFLPATKAQPKEMLPIVDKPTIQYIVEEAIKSGIEDIIIISGRSKRAIEDHFDKSYELEQELEKKGNHDLLKLVQDISNLANIHYIRQKEAKGLGHAIYCAKSFIGNEPFAVLLGDDIVDSEVPCIKQLMDVYDKYRTTVLGVQKVPEDQVSKYGIVGGEIVSDRVYKVKDLVEKPDTASAPSNIAILGRYIITPRIFDYLENAKPGKGGEIQLTDALRELMGEEEMYAYDFIGKRYDVGNKLGFLQATVEFALARDDLKEEFEAYLKEIICKL	soluble
LSESDRGASCAPIGAIADAVKSGKVGSCVNNEYDVPGGKVEDFVSGRAYWSPSTGAHALYGRINARYSEMGGPQSWLGFPISSEFAIKDNARVVQFQNGNIYWSPQRGAIAVPKDIVDKWGEQQWENGFLGFPVAEAKEVAGGFIQEFEGGLVVRTKDNKNQWLRGEIAKKYREMKTAESELGFPVSDEIKINGGAFQQFEHGNIYWSAATGAHFIRKGDIFNTWGVKKWEQGELGFPVTDHTQIPAGGEEITFQHGKISQVNGVIREERR	not soluble
LSGMTGNQSPAALMSSNIDLLDAITPNVRDALTALFANIACYVLGSIWFRAGVAERIQASAFVSPGKLKNNASKKSGPISQQDLLILASRFVSPTRAYESFSRFSTEAVKSDSWHKAATPELIAHTERLLAGVLGASSASLVMDSVLQGRDLALDEVFSLVDEASSKIMLSQDMLRGAIEHAYEGMSVIDSDLNLVAWNYKYVELYQYPEGFLQQGMPISEVI	not soluble
